The text below walks through data of the DeepSol protein solubility set.

A short description of the data set: soluble on expression in E. coli; label from the status in PepcDB or PDB records.
As for “MEQIVSSLWSDCLNHLQTKVSPIDYSTWLRPLQASFANEELTLYAQNPFVENWVKDKFLTEIIDLARFLSKNEQLKITIRVGNKPTEQNLSASSTNKEELTQDTVHKFKTGLNGRLTFDNFVQGKSNQLAKAVAQQVADNPGESHCNPFSLYGGTGLGKTHLLHAVGNEILKRNPQARVVYIHSERFVQDMVKALKNNTIENFKKFYRSLDVLMIDDIQFFAKKEASQEEFFHTFNSLFERNKQIILASDHFPKNIENIEERIKSRLNWGVSTAIEPPELETRVAILMKKAEERNVELPEEVAFYLGQKLRTNVRELEGAINRVSAWCNFTKRQITIDAVRETLKDLIASYDHLVTIENIQKIVAEYYNIKMADLKSKSRTRSIARPRQMAMALAKELTSHSLPEIGREFGGRDHTTVMHACKTINELRDTDNSIQEDYTNLTRKLSSLEHHHHHH”, the “soluble on expression in E. coli” value is listed as “soluble”. For “SLDWQKGMNSAIDYIEKNLTGNVNVRTAAGFVGCSTWEFQRIFSFLTHIPLSEYIRQRKLTLAAQEIKDNDVKIIDIALKYGYESPAAFSRAFNKLFGIAPSSVRNTENNLKTYPRITFEKIENERLIKMSRFSERGYVVRENGPVYFTKDMDKTVKWFEEILGWSGDIVARDDEGFGDYGCVFDYPSEVAVAHLTPFRGFHLFKGEPIKGVAGFMMIEGIDALHKYVKENGWDQISDIYTQPWGARECSITTTDGCILRFFESIQEG” the value was “soluble”; for “MSLKNLDINIVSEVRRIDNGRLDIPVYFSVCGDDASQYTGTKKQMGKGASPIQSEASACMELAERFSFFSFSKNADNFLLGDYEEMRAAGYPVLDMEHLLKSVHDTHTTVAQLEKLLAGIPMQWTWATKMTGEEGEVLIPFSWFFAINEFNGPSAGNTQEEAALQGLCEIVERDVCSRINRDKLPTAKIDVETIKDPVAVELLEKFAKNNIEVYLNDFSLETGIASVGALAIDRSTFPEKSEIVYTAGTTPNPEKAIIRAITEVAQLAGDFNTGSNYIASGLPKPLSMSEVTYLTETADQVTIDEMVDISDDNIYTEVKNCLDSLKNNGFDVYMIDVCHPQLQIPALYTIIPGAHFRERSMICNAGLFCAKLLVERIEDPAEQEVKLGEMSVLEGHHHHHH”, “not soluble”; for “MKLTKGKVLLAGCMAMAMSHSVLAQDIKVAIVGAMSGPVAQYGDMQFTGARQAIADINASGGIKGDKLVGVEYDDACDPKQAVAVANKVINDGIRYVIGHLCSSSTQPASDIYEDEGVIMITPAATNADLTTRGYKMIMRTTGLDSDQGPTAAKYIVETIKPKRIAVVHDKQQYGEGLARSVRDSLKEQGAEVVLFEGVTAGDKDFSTLVARLKKENVDFVYFGGYYPEMGQILRQAKQAGLTARFMGPEGVGNSSLSNIAGEASEGMLVTLPKRYDQVPANQPIVDALKAKKLDPTGPFVWTTYAALQSLTTAMERTGSKEPADLANDLKTGKPVETVMGPLSWDDKGDLKGFEFGIFEWHADGSSTAVK”, “not soluble”.

In the case of “MGRNKEFDTALVLHRAIEVFGEYGYEGTSLQDLLSHLGIARQSLYDTYGTKRDLFLSAVKSYLEGKNAAVMERLEAPGSVKEAIRDIFQEGVNALRDPERAKACYIINSAIEQIPHDPELARYFERQSKQLEDAFYHGLLRAKDQGELNGEDTDISALARYLNQSRLSLTFIAKVTADMDRLQDHVDVSLSVLD”, the “soluble on expression in E. coli” value is reported as “soluble”.

For “AVLLLGEVTNGALNRDATAKAVAAVKALGDVTVLCAGASAKAAAEEAAKIAGVAKVLVAEDALYGHRLAEPTAALIVGLAGDYSHIAAPATTDAKNVMPRVAALLDVMVLSDVSAILDADTFERPIYAGNAIQVVKSKDAKKVFTIRTASFDAAGEGGTAPVTETAAAADPGLSSWVADEVAESDRPELTSARRVVSGGRGLGSKESFAIIEELADKLGAAVGASRAAVDSGYAPNDWQVGQTGKVVAPELYVAVGISGAIQHLAGMKDSKVIVAINKDEEAPIFQIADYGLVGDLFSVVPELTGKL”, the “soluble on expression in E. coli” value is reported as “soluble”. “MGSDKIHHHHHHMTQLELLLERIIDRVNVNLRHQKFDVGDYVRRQTPHLHYSKFYAFYGLSADDPVHFHFKNSSLAGSYLLGRVNVLHSALYKSDIRGDELKRKGQHFVCDGKMIPLHDDEVITIKDSFLNKTLVHSNSHDPESPEEFTIRNTVAMPYANIHGSLTEGSFIGSFATVDLSTIHNSVVRYFSYVQTGELVGKCVEPGQIWIKSGDELEFHYSFDKAILDKYISQEAGSCPTGVLMEFVEVRQEDFEEVFASGHMASGAGSASGASVSGYAVIKGDTVIGENVLVSQRAYLDNAWMGKGSNAQENCYIINSRLERNCVTAHGGKIINAHLGDMIFTGFNSFLQGSESSPLKIGDGCVVMPHTIIDLEEPLEIPAGHLVWGYIRNKADLAAHSISFEEFAKVDGEVTMGRMTFRGKGGPFLDSFKKRIKRILSENGAFFDGSEGTGHAQKGKNFTFNIIQPYQDGDPRGMYPTILIQPNNGS”: the “soluble on expression in E. coli” value is “not soluble”.

For the sequence “MTELPLQFAEPDDDLERVRATLYSLDPDGDRTAGVLRDTLDQLYDGQRTGRWNFDQLHKTEKTHMGTLVEINLHREFQFGDGFETDYEIAGVQVDCKFSMSQGAWMLPPESIGHICLVIWASDQQCAWTAGLVKVIPQFLGTANRDLKRRLTPEGRAQVVKLWPDHGKLQENLLLHIPGDVRDQIFSAKSSRGNQHGQARVNELFRRVHGRLIGRAVIATVAQQDDFMKRVRGSGGARSILRPEGIIILGHQDNDPKVANDLGLPVPRKGQVVAARVVPADEGDQRQTAEIQGRRWAVAVPGDPIVEAPVVPRKSAE”, the “soluble on expression in E. coli” value is on record as “soluble”. In the case of “MSQQVIIFDTTLRDGEQALQASLSVKEKLQIALALERMGVDVMEVGFPVSSPGDFESVQTIARQVKNSRVCALARCVEKDIDVAAESLKVAEAFRIHTFIATSPMHIATKLRSTLDEVIERAIYMVKRARNYTDDVEFSCEDAGRTPIADLARVVEAAINAGATTINIPDTVGYTMPFEFAGIISGLYERVPNIDKAIISVHTHDDLGLAVGNSLAAVHAGARQVEGAMNGIGERAGNCSLEEVIMAIKVRKDILNVHTAINHQEIWRTSQLVSQICNMPIPANKAIVGSGAFAHSSGIHQDGVLKNRENYEIMTPESIGLNQIQLNLTSRSGRAAVKHRMDEMGYKESEYNLDNLYDAFLKLADKKGQVFDYDLEALAFIGKQQEEPEHFRLDYFSVQSGSNDIATAAVKLACGEEVKAEAANGNGPVDAVYQAINRITDYNVELVKYSLTAKGHGKDALGQVDIVANYNGRRFHGVGLATDIVESSAKAMVHVLNNIWRATEVEKELQRKAQHNENNKETV”, the “soluble on expression in E. coli” value is recorded as “not soluble”. Take “MAHHHHHHMDEFRPDDTTQIEEGSESNAALLQLQDALVSALTASGTLGKIRAQLRATALALIRGDDELQNAAVGPFIRPRTLTTHAKVSLLLLHDFLQHYHLQQTAGVLDVESSVHLLFNERSVLLGDLARLPGDGSLLERLVRLYEPTRQIPAVGPSGATAVTTASQTSVSIPAAKLPASPVASSSSSASQEQTVAMAQPQDADVQYELDAYEDSIPFSDTEGTIDGNVHCDEVERLTQ”: the “soluble on expression in E. coli” value is on record as “not soluble”.

On to “MGSDKIHHHHHHMRIAYLSSAYLAPVEYYTKLLEYDKIYVEQHDHYIKQTYRNRCTIAGPDGELALSIPTVKPDTLKCPMKDIRISDHGNWRHLHWNAIESAYNSTPYFEYYKDDFRPFYEKKYEFLADFNEELCQLVCKLIDIQPCIERTSEYKTEFTTEETDFREIIHPKKDFQIADPEFVPHPYYQVFDSKLGFLPNLSIIDLLFNMGPESLLVLTSK”, for which the “soluble on expression in E. coli” value is “not soluble”. On to “RGSHHHHHHGSMGDNIVLYYFDARGKAELIRLIFAYLGIEYTDKRFGVNGDAFVEFKNFKKEKDTPFEQVPILQIGDLILAQSQAIVRYLSKKYNICGESELNEFYADMIFCGVQDIHYKFNNTNLFKQNETTFLNEDLPKWSGYFEKLLKKNHTNNNNDKYYFVGNNLTYADLAVFNLYDDIETKYPSSLKNFPLLKAHNEFISNLPNIKNYITNRKESVY”, for which the “soluble on expression in E. coli” value is recorded as “soluble”. Take “LTEHLIDSIRTNRTENKIHLKPEPFNIGPYTKLSINKRDNYGTIKIKWFDRVPFTEYKSFLDSSIHNLNTRQITNLIIDLRWNIGGPREYPIYLLSKILNQPFRYCDSLITTKFTFEEKIAFDSTKVFVPMDNGFYKVVKNARGLGQQNPSNVTFTGNIYLLVDGQSNSSSAQVASLIYQNRRGTIIGEEPGGLFEGGTGEHHYYLTLTNSRIKVQIPRYRIVLHVDRSKFHGHGVKPDYEVKPDITDMIQGKDPVMEFTIGLIKK”: the “soluble on expression in E. coli” value was “not soluble”. “MLHILCQGTPFEIGYEHGSAAKAVIARSIDFAVDLIRGKTKKTDEELKQVLSQLGRVIEERWPKYYEEIRGIAKGAERDVSEIVMLNTRTEFAYGLKAARDGATTAYCQLPNGALQGQNWDFFSATKENLIRLTIRQAGLPTIKFITEAGIIGKVGFNSAGVAVNYNALHLQGLRPTGVPSHIALRIALESTSPSQAYDRIVEQGGMAASAFIMVGNGHEAFGLEFSPTSIRKQVLDANGRMVHTNHCLLQHGKNEKELDPLPDSWNRHQRMEFLLDGFDGTKQAFAQLWADEDNYPFSICRAYEEGKSRGATLFNIIYDHARREATVRLGRPTNPDEMFVMRFDEEDERSALNARL”: the “soluble on expression in E. coli” value is on record as “soluble”. As to “QREIQGVRHFVADLSEAARLGLVPGEHYFCVSSIRVDRQHDGAPLCWTDVYAQRDYTAVIELAREHPDQLIAGLIEQHYGRAIAVVDQQVRAVLLTAEMARALKAEAGSPGLKIIRHYREENGDLMAVSETVHPDDRFT”, the “soluble on expression in E. coli” value is given as “not soluble”. Regarding “MAHQTGIHATEELKEFFAKARAGSVRLIKVVIEDEQLVLGASQEPVGRWDQDYDRAVLPLLDAQQPCYLLYRLDSQNAQGFEWLFLAWSPDNSPVRLKMLYAATRATVKKEFGGGHIKDELFGTVKDDLSFAGYQKHLSSCAAPAPLTSAERELQQIRINEVKTEISVESKHQTLQGLAFPLQPEAQRALQQLKQKMVNYIQMKLDLERETIELVHTEPTDVAQLPSRVPRDAARYHFFLYKHTHEGDPLESVVFIYSMPGYKCSIKERMLYSSCKSRLLDSVEQDFHLEIAKKIEIGDGAELTAEFLYDEVHPKQHAFKQAFAKPKGPGGKRGHKRLIRGPGENGDDS”, the “soluble on expression in E. coli” value is “soluble”.

“MGSDKIHHHHHHLTIRVLAHLAGAHLDHAIALGLRSGLGDDWLRIGGLKLFADGSLGSESAHMLLPYEGRDHTGIAVIPPAEMQEIVTRANAHGISVVVHAIGDAANRSVLDAIAAARATAASLALPNRIEHCQILDPHDIPRFAELNVIASMQPIHCTADMVMAERLWGKRCATSYAWRSLRAAGATLAFGSDAPVETMDPWAGIHAAVTRQTTDGTPDGGWYPEQRLTLTEALEAYCIGPTIAGADAERRGRLIPGMFADLAVLNGDPFQMPVTHLHTLHAELTMVGGKIVFNRTSR”: the “soluble on expression in E. coli” value is given as “not soluble”. For the sequence “MFGKYKVSVIIPAYNEEKRIGNVLARIPDFVDEVIVIDDGSSDATYEVAKRYTDKAIRLNKNMGKGAALREGLRHASGDIIVFMDADGQHNPKEIPKLLEPIIKGKADFVIGKRIIKTGKRPLPRKLSNFITTTLIRLKTKQRIEDSQSGFRAIRREFVPEITSDRYEVETEVLIKAVKKGARITEVPVSTRYDLKTGKFRVEDIIRFLIALIKSLEHHHHHH”, the “soluble on expression in E. coli” value is recorded as “not soluble”. Turning to “MGSDKIHHHHHHVKIILRKIRTLVTHPGFRANPIAVLGRCAALLGRVALGRPFVFSLTPAGERLRVDANLRYTTVTTFVMRDHLEPELHYLAHLLAPGDTFIDIGANVGVYSLRAATLVGAAGRVIAVEPGRDALTALRANLALNPGRTITVVAAALSDHIGTATLYHVGNGYDPQAFSLLSDETAKDAETVPLTTLDAVCADLAIDRLDCLKMDAEGVEPMVLAGGRATLERFHPAVILEMNTAILERRGSPTDQAWTFLAGLGYGFHRILGGRPVRLTAPPDDFCNVIATHPANEKIG”, the “soluble on expression in E. coli” value was “not soluble”.
